Reference: US7977317B2, “Compositions and methods for modulating blood-brain barrier transport” (Raptor Pharmaceutical Inc., priority 2001, dated 2011)

Tests used:
[1] = In situ brain perfusion with capillary depletion; format: in vivo; details: mice, 10 min perfusion
Experimental: FIG. 11 examines the accumulation and transcytosis of p97. FIG. 11a, of [^125I]-p97, [^125I]-BSA and [^125I]-holo-transferrin one hour after i.v. injection. The radioactivity in brain was compared between the three compounds. (n=3); FIG. 11b, Accumulation of p97 and transferrin into the mouse brain parenchyma. In situ brain perfusion was performed with human [^125I]-p97 or [^125I]-holo-transferrin at a final concentration of 10 nM via a catheter inserted in the right common carotid artery. The volume of distribution (VD) of [^125I]-proteins were obtained in the whole brain homogenate (white bars), in brain capillaries (solid bars) and in brain parenchyma (hatched bars) after isolation of the right hemisphere and capillary depletion. Results were obtained for p97 (n=10) and for holo-transferrin (n=6); FIG. 11c, Transcytosis of p97 across BBCEC monolayers. Transcytosis experiments were performed 37° C. (open circles) and 4° C. (closed circles) with BBCEC monolayers. […] Apical-to-basal and basal-to-apical transport of [^125I]-p97 (25 nM) was measured for 2 hrs at 37° C. At the end of the experiment, [^125I]-p97 was assessed in the lower or upper chambers of each well by TCA precipitation (n=4).
A. Brain uptake and in situ brain perfusion. […] The serum and brain samples were collected and the levels of radioactivity were measured. […]

[2] = tested on: LRP1B; assay: RT-PCR after p97 treatment in MG1391 fibroblast cells: LRP1B; format: cell-based; details: fibroblast cell line MG1391, RT-PCR (FIGS. 40 and 41)
Experimental: FIG. 39 show the expression of members of the LDL receptor family in MG1391. RT-PCR. RT-PCR was performed for members of the LDL-R family: LRP, LRP1B, megalin, LDL, VLDL, LRP8, LR11, LRP5 and cubulin. DNA (cDNA) synthesis was performed with 1 μg of total RNA using a cDNA one step synthesis kit (Invitrogen, USA) following the manufacturer's protocol. (1× of reaction mix, RNA 1 μg, 0.2 μM of both primers, 1 μl of RT/Platinum Tag mix). The cDNA generated was amplified using primers produced with MacVector 7.0 (Oxford molecular Ltd, Oxford, UK). All the subsequent assays were then performed under conditions that produced amplifications of cDNA within a linear range. RT inverse-transcription was performed at 50° C. for 30 min. PCR amplification for 35 or 40 cycles for all was performed as follows: denaturation at 94° C. for 30 s, annealing at 60° C. for 30 s and extension at 72° C. for 1 min. Finalisation stage was performed at 72° C. for 5 min. Tubes containing all the ingredients except templates were included in all runs and served as negative controls. The amplified PCR products were electrophoresed on a 1% agarose gel in TAE (40 mM Tris, […], 1 mM EDTA, […] Ethidum bromide) and were visualized under ultraviolet light followed by densitrometric analysis.

[3] = tested on: BBCECs; assay: Binding of [125I]-p97 to BBCECs with saponin treatment (Scatchard); parameters: species or system bovine; details: 200-fold molar excess, after saponin treatment (FIG. 12b)
Experimental: FIG. 12 illustrates the Binding of p97 to BBCE cells. FIG. 12a, p97 binding experiments were performed with BBCECs that were either pre-incubated in Ringer-Hepes solution or pre-treated with saponin. BBCECs were then incubated for 2 hrs at 4° C. with [^125I]-p97 (25 nM). At the end of the incubation, the filters were gently washed with cold PBS and then the radioactivity associated with the ECs was quantified; FIG. 12b, The binding of [^125I]-p97 was also performed with increasing concentrations of unlabelled p97 following saponin treatment. The results were expressed as the percentage of the [^125I]-p97 binding measured in the absence of unlabelled p97; FIG. 12c, The results were also transformed with a Scatchard plot and expressed as the ratio of bound p97/free p97 as a function of the bound p97 (n=5).
Transcytosis and binding experiments. […] At the end of the experiment, [^125I]-p97 was quantitated in 500 μl of the lower chamber of each well by TCA precipitation. We also measured p97 in 50 μl of the lower chamber of each well by SDS-PAGE according to the method of Laemmli (Laemmli, U.K. Nature; 227: 680-685 (1970)). Proteins were separated on 7.5% acrylamide gels, stained with Coomassie Blue, dried and analysed by densitometry. […] After 2 hrs at 4° C., ECs were gently washed, and the [^125I]-p97 attached to the ECs was quantified in a liquid scintillation counter. […]

Inhibition of radiolabel ([125I]-p97) binding by unlabelled p97 [3]: approximately 50%
B1: p97: recombinant human melanotransferrin (p97), provided by Synapse Technologies (protein, UniProt P08582 20-709, looked up)
Melanotransferrin: GMEVRWCATSDPEQHKCGNMSEAFREAGIQPSLLCVRGTSADHCVQLIAAQEADAITLDGGAIYEAGKEHGLKPVVGEVYDQEVGTSYYAVAVVRRSSHVTIDTLKGVKSCHTGINRTVGWNVPVGYLVESGRLSVMGCDVLKAVSDYFGGSCVPGAGETSYSESLCRLCRGDSSGEGVCDKSPLERYYDYSGAFRCLAEGAGDVAFVKHSTVLENTDGKTLPSWGQALLSQDFELLCRDGSRADVTEWRQCHLARVPAHAVVVRADTDGGLIFRLLNEGQRLFSHEGSSFQMFSSEAYGQKDLLFKDSTSELVPIATQTYEAWLGHEYLHAMKGLLCDPNRLPPYLRWCVLSTPEIQKCGDMAVAFRRQRLKPEIQCVSAKSPQHCMERIQAEQVDAVTLSGEDIYTAGKTYGLVPAAGEHYAPEDSSNSYYVVAVVRRDSSHAFTLDELRGKRSCHAGFGSPAGWDVPVGALIQRGFIRPKDCDVLTAVSEFFNASCVPVNNPKNYPSSLCALCVGDEQGRNKCVGNSQERYYGYRGAFRCLVENAGDVAFVRHTTVFDNTNGHNSEPWAAELRSEDYELLCPNGARAEVSQFAACNLAQIPPHAVMVRPDTNIFTVYGLLDKAQDLFGDDHNKNGFKMFDSSNYHGQDLLFKDATVRAVPVGEKTTYRGWLGLDYVAALEGMSSQQC
Apparent VD of p97 in brain parenchyma relative to transferrin [1]: 8.8 fold
Apparent VD in the brain parenchyma ([1]; 10 nM [125I]-protein (FIG. 11b)): 17.2 ml/100 g
Expression of LRP1B in MG1391 cells [2]: particularly induces the expression
